According to the RNAGym collection of RNA variant scans (doi:10.7554/elife.80360):

B1: Hairpin Ribozyme (parent)
chain: GUCCUCUUUCACGUGCGCGUGAAAGAGAGAAGUGAACCAGAGAAACACACGUUGUGGUAUAUUACCUGGUA

Variants of: B1
Assay: self-cleavage, relative activity (ratio to wild type); higher = more cleavage; co-transcriptional

Variant | self-cleavage
G40U A44U | 0.142
G40U A44C | 0.105
C37U C65G | 0.163
C37U C65U | 0.316
A39C G68C | 0.191
A39U A64G | 0.116
A39C U62A | 0.159
A39C U62G | 0.108
A41C A61G | 0.304
A41G A47G | 0.0362
A39U A61G | 0.0916
A39U A61U | 0.125
G40C G54C | 0.114
C38A U70A | 0.165
C38G G51U | 0.312
C38G G51A | 0.271
A39G U58A | 0.217
A39G U58G | 0.114
C38U U60G | 0.431
A39G A64G | 0.275
C37U G69C | 0.364
G40A G69C | 0.11
C38G G42A | 0.103
C38U A47G | 0.163

Variant | self-cleavage
C38U A47C | 0.276
G40A G68A | 0.211
G40A G68U | 0.156
G40A G68C | 0.223
C38G G56A | 0.134
C38G G56U | 0.0935
A39U A71U | 0.19
G40C A44C | 0.0317
C38A G57A | 0.0809
C38A G57C | 0.157
C38A G57U | 0.0968
A39C U53C | 0.42
C38U C46G | 0.123
G40A U53C | 0.46
G40A U53G | 0.169
C38G G57A | 0.0627
C38G A45U | 0.156
A39G U55A | 0.0918
A41C A71G | 1.26
A41C A71U | 1.18
A41G A44U | 0.185
G40A A45C | 0.0818
A41C G56C | 0.237
G40C A41C | 0.108

Variant | self-cleavage
A39C U67G | 0.548
C37U C48U | 0.144
C38A G69A | 0.146
G40U U58A | 0.155
G40C A64G | 0.129
G40C A64C | 0.126
C38G C46G | 0.161
C38G A47G | 0.116
C38G A47C | 0.128
C38U G57C | 0.182
G40C A43U | 0.128
G40C A43C | 0.168
A39C U55C | 0.188
C37U C66A | 0.0721
C37U C66G | 0.195
C38A A71C | 0.228
C38G U70A | 0.144
G40A C48U | 0.136
G40A C48A | 0.246
G40A C48G | 0.135
C38U A71G | 0.681
A39G U60A | 0.228
G40A U62C | 0.141
G40A U62A | 0.12

Variant | self-cleavage
A41C C48U | 0.183
C38G A41C | 0.264
C38G A41G | 0.618
C38U G40C | 0.118
C38U C65G | 0.164
C38A A49U | 0.0928
C38A U58G | 0.204
C37U G57C | 0.156
C37U G57U | 0.221
C38U A61U | 0.164
C38A U63C | 0.0636
A41C G42A | 0.805
C38G U62G | 0.0875
G40C G56C | 0.122
C38A G51A | 0.349
A39U A44U | 0.102
A39U A44C | 0.127
C37U G40C | 0.172
G40U A47C | 0.118
G40U A47G | 0.18
A39C C66A | 0.152
A41C U52G | 0.654
C38A U62G | 0.139
C37U A64G | 0.456

Variant | self-cleavage
C37U A64U | 0.242
C37U U62C | 0.0928
A39C G40C | 0.0323
G40A C65G | 0.0639
C38U C50A | 0.207
C37U U58G | 0.553
C37U U58A | 0.48
C38A G56C | 0.136
C38A G56A | 0.178
G40U U53A | 0.121
G40A A59C | 0.121
G40A A59U | 0.136
C38G A64G | 0.118
C38G A64C | 0.0814
A39G G54C | 0.131
A39G G54A | 0.143
G40C C65U | 0.129
A39C U63C | 0.122
A39G A44U | 0.103
A39C A47U | 0.151
C38A G54A | 0.0977
C38A G54C | 0.164
C38A G54U | 0.135
A39C U58C | 0.568

Variant | self-cleavage
C38G G68A | 0.247
G40C U67C | 0.098
C38G A43C | 0.198
A39G U53A | 0.295
C38A A39U | 0.206
A39C A61C | 0.117
C38A U52G | 0.0831
C38A U52A | 0.41
C38A U52C | 0.193
C38G A44U | 0.207
C37U C38A | 0.145
C38G U67G | 0.124
G40U C65A | 0.158
C38G C48U | 0.108
C38G C48G | 0.071
A39G C65G | 0.152
C37U C50U | 0.289
C37U C50A | 0.116
G40A G51U | 0.404
C37U G54A | 0.397
C37U G54U | 0.443
A41C A64G | 0.173
G40U A64C | 0.175
G40U A64U | 0.1

Variant | self-cleavage
C38A C46A | 0.0508
A41C C50A | 0.634
A39C C65U | 0.401
A39C C65G | 0.167
A39G A45C | 0.122
G40C A61C | 0.107
A41C U55C | 0.484
C38A G42A | 0.111
A41C A47U | 0.229
A39G C66A | 0.101
A39G C66U | 0.194
G40C U62G | 0.0847
G40C C50G | 0.12
A41C U67C | 0.249
C38U C48A | 0.142
A39C G69A | 0.168
A39G A49U | 0.0948
C37U A59U | 0.16
A41G A61C | 0.299
C38G A61C | 0.133
G40C | 0.128
G40A | 0.329
G40U | 0.175
C38G U53A | 0.185

Variant | self-cleavage
A39U U53C | 0.508
A39C U70A | 0.188
A39C U70G | 0.232
C38U U67G | 0.204
C38A U53G | 0.0628
C38U G68C | 0.171
G40U G42A | 0.202
A41C U70A | 0.732
A41C U70G | 0.91
C38U G42C | 0.177
C38U G42U | 0.2
A39U G68U | 0.225
G40A G42U | 0.127
C38G C50U | 0.0995
A39G G42U | 0.107
A39G G42C | 0.129
A39U U62A | 0.126
C38A | 0.171
C38G | 0.181
C38U | 0.497
A39C A41C | 0.349
C38A U55G | 0.183
C38A U55A | 0.133
A39C C48G | 0.256

Variant | self-cleavage
A39C A64C | 0.193
C37U U70G | 0.505
G40C G68U | 0.148
A39C G57U | 0.16
A39C G57C | 0.127
G40C A45C | 0.0755
G40U U67G | 0.151
G40U U67C | 0.0949
G40C G69C | 0.169
G40A A43C | 0.147
A39U G56U | 0.189
A39U G56C | 0.169
A41C U53G | 0.758
A39U A45U | 0.142
A41C | 1.21
A41G | 0.913
A39U A47U | 0.164
G40A A41U | 0.608
G40A A41G | 0.263
C37U U63A | 0.24
C37U U63C | 0.0912
A39U A49G | 0.169
A39G G40C | 0.0572
A39G G40U | 0.116

Variant | self-cleavage
G40A U58A | 0.134
G40A U58G | 0.19
G40C U53G | 0.103
G40C U53C | 0.168
A39C G42A | 0.191
A39C G42C | 0.169
C38U U55G | 0.137
C37U U52C | 0.651
C37U U52G | 0.527
G40C C48A | 0.128
G40C C48U | 0.135
G40C C46U | 0.116
C38G U52G | 0.0784
C38G U52A | 0.169
C38G U52C | 0.224
A39G A59C | 0.122
A39G A59G | 0.116
A41G A43C | 0.285
A41G A43U | 0.152
C38U U53G | 0.431
C38U U53C | 0.823
C38U U53A | 0.731
G40C U60A | 0.0252
G40C U60G | 0.102

Variant | self-cleavage
A39G U52C | 0.26
A39G U52G | 0.3
C38G A39U | 0.209
C38U U58A | 0.333
A39G A61U | 0.152
A39U C66U | 0.213
C38U U63G | 0.186
C38U U63C | 0.128
C38G C65G | 0.0624
A39G C48G | 0.0932
G40U U60A | 0.191
A39C A44U | 0.129
G40A U52A | 0.352
G40A U52C | 0.347
A41C G54A | 0.829
A39U U52A | 0.406
A39U U52G | 0.252
A41G A59U | 0.138
C38G C66G | 0.0755
C38G C66U | 0.21
C38G C66A | 0.151
C38U G56C | 0.171
C37U G68A | 0.257
G40U C48U | 0.181

Variant | self-cleavage
G40U C48G | 0.189
G40A A64G | 0.119
C38G A71C | 0.272
G40C A47C | 0.142
A41C A59C | 0.17
C38U A39C | 0.152
A41C A49U | 0.0586
A41C A49G | 0.561
A41C A43G | 0.191
A39U C65G | 0.232
C37U G51U | 0.81
G40A A44C | 0.161
G40A A44G | 0.144
C38U A59C | 0.228
G40U U62A | 0.141
G40U U62C | 0.212
A39G C50U | 0.148
A39G C50A | 0.196
A39C G54C | 0.213
A39G G51C | 0.232
A39G G51U | 0.36
A39C A71C | 0.88
G40C G57U | 0.106
G40C G57C | 0.134

Variant | self-cleavage
C38U G69C | 0.158
G40C U63G | 0.135
G40C U63A | 0.183
G40U G51C | 0.104
A39G A43C | 0.137
C38A A47G | 0.106
C38A C66G | 0.114
C38G U55C | 0.0193
A41C U58C | 1.2
A41C U58G | 1.18
A39G A41C | 0.267
G40A U63G | 0.126
G40U U63A | 0.138
C38G U60A | 0.116
G40U G56C | 0.147
G40U G56A | 0.174
A39C G51U | 0.64
G40U G69U | 0.0875
C37U U53G | 0.364
C37U U53A | 0.775
A39U G54U | 0.163
A39C G56A | 0.193
C38A A45U | 0.143
C38A A45G | 0.104

Variant | self-cleavage
C38U U70G | 0.39
A39U U70C | 0.247
C38A U67C | 0.0697
C38U U52C | 0.598
G40A A61U | 0.177
A39G G68U | 0.107
A39C U52A | 0.543
G40U U70C | 0.12
G40A C66A | 0.322
C38A U60C | 0.251
G40U C66U | 0.223
A39C A43U | 0.123
A39C A43C | 0.14
A41C G57C | 0.226
G40A U70C | 0.136
C38A A41C | 0.183
C38A A41U | 0.286
C38A A43C | 0.0755
C38A A43G | 0.0867
A39U U67A | 0.73
A39U U67C | 0.286
G40A C50G | 0.243
